What was measured:
[1] = system: non-tumoral human fibroblasts; experiment: Cell viability tests (survival rate), previous experiment; format: cell-based; settings: rounded values
Text: (§1) ER stress also promotes mitochondrial dysfunction, Cytochrome c release, PARP cleavage, Ca+^2 mobilization and caspase activation in SK-MEL-28 and Mia-PaCa-2 cells, positively regulating CASP3. The survival rate of the previous experiment, calculated using cell viability tests, is herein summarized: Mia-PaCa-2 67%, SK-MEL-28 44%, SK-MEL-5 42%, non-tumoral human fibroblasts 100% (rounded values). These numbers indicate that part of the cells possibly survives through a positive unfolded protein response (UPR) and part dies. […] Furthermore, autophagy could also be evoked to recover a global tissue homeostasis, and, in this case, there is the signature of immunogenic cell death (ICD). It is believed that the ICD could explain this.

SK-MEL-5 = experiment: as above; format: cell-based; settings: rounded values
Text: as §1

B1: Amblyomin-X: recombinant Kunitz type protein identified in a cDNA library of Amblyomma sculptum tick salivary glands (protein)
chain: MRQLAVLALVIFTGMCVESQSANSKAVCNLPKLAGDETCSNKTEIRWYYNGTACEAFIFKGCGGNDNNFDRVDDCQRLCEEQTHFHFESPKLICFKVQDYWILNDIMKKNLTGISLKSEEEDADSGEID
modifications: Amblyomin-X
notes: recombinant Kunitz type protein identified in a cDNA library of Amblyomma sculptum tick salivary glands
[1]
  survival rate: 100%
SK-MEL-5
  survival rate: 42%
